± gives the uncertainty stated by the source.
Test: amyloid nucleation score (Sup35N fusion, yeast selection) (log enrichment); library NNK2; higher = more nucleation; inactive = no reads after selection
In short: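 The nucleation score is the log enrichment of output over input reads, calculated with DiMSum and centred on the mode score of non-aggregating sequences. Sequences with under 100 input reads were excluded. Reads came from Illumina sequencing of plasmid inserts from psi-negative yeast expressing Sup35N fused to peptides of 20 random codons, induced 24 hours with 100 μM copper sulfate and grown 7 days at 30°C without adenine and uracil.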

Substance	amyloid nucleation score
LSKSVLKNTWGVYVI	-0.358 ± 0.79
LSLFSYPLHAPFLTMVSWPY	-0.78 ± 0.78
LSLLFH	inactive
LSLMHAQHSTMLDNSMTM	0.621 ± 0.56
LSLNG	-0.955 ± 0.39
LSMTEWVFSKGNRALAVYYM	-1.39 ± 0.61
LSMTKLGVIGTSCNFLLW	inactive
LSMVDCGASDGLEQVFGLAG	0.14 ± 0.33
LSNEAWFGQGMLDGWGGGEG	0.514 ± 0.56
LSNRSYFTSTAWYEKNRPA	-0.293 ± 0.26
LSPRNPYAFVSAISDRIM	-0.97 ± 0.63
LSQGLIKRMYQHMCMKCVGF	-0.08 ± 0.35
LSRSRVINIYASAGWRFLGS	inactive
LSSCLHEIRDSVVVRVVVVY	-0.684 ± 0.5
LSSTRDR	-1.24 ± 0.48
LSSTYRC	-0.24 ± 0.39
LSSWS	-0.611 ± 0.44
LSVAFRVW	-0.55 ± 0.49
LSVGLNKYRNA	-0.919 ± 0.76
LSVPRIFGSFVWVRQ	-0.633 ± 1.1
LSVSPGSRDLREPEDSFMWS	-0.05 ± 0.3
LTAWIC	0.285 ± 1
LTCLLVRCSFVRCCVERPWS	-0.732 ± 0.54
LTCVSAR	1.2 ± 0.16
LTEVIVFYIRYMQARDRLIR	inactive

Substance	amyloid nucleation score
LTFACSVLL	3.1 ± 0.092
LTHIKDRVELLLGGQFISDT	0.011 ± 1.1
LTICS	-1.03 ± 0.78
LTISRSNLGARPF	-0.053 ± 0.39
LTKGRSFCVNPFHITVDGQE	-0.761 ± 0.23
LTMCICWLTQCMT	6.283 ± 0.056
LTMVWNKSFGEIHRLWVGNS	-1.58 ± 0.62
LTPIMAEKVLPYICQLLRGS	-0.228 ± 0.55
LTRGTFRIQCTLTSAWRVAR	4.62 ± 0.11
LTSKAVAYNDLACFMLS	0.613 ± 0.74
LTSWDHN	0.131 ± 0.31
LTTLKFRFFLIIKRSSAGCC	0.461 ± 0.8
LTTWNGCSDEC	-0.557 ± 1.1
LTVFTPR	-0.62 ± 0.37
LTVMSFTNNLHYLF	-0.552 ± 0.48
LTVRS	-0.42 ± 0.76
LTVTDG	0.104 ± 0.37
LTYAYNISYFNWVYCGYWFC	6.448 ± 0.042
LTYLTWFLSMDQGMLNWLHV	0.973 ± 0.35
LTYYTNRTQYLML	-0.424 ± 1.1
LVACMASDITNNMSRLYHLI	-1.79 ± 1.1
LVANSSVHVNSSTSNNRLAV	-0.917 ± 0.56
LVDHLGFMRMSMAGSWWVEG	0.42 ± 0.8
LVFRLDFDYVRLCPNLANTL	0.192 ± 1
LVGFALGSDTLISRY	-0.221 ± 1.1

Substance	amyloid nucleation score
LVGMSANNTVKYSK	0.144 ± 0.36
LVHPALVVWKQYWVVRLRDV	6.43 ± 0.044
LVIMGVCGWSGL	7.975 ± 0.038
LVKVTLRVMISV	0.099 ± 0.2
LVLYGFYVTSDLRWSLSWKM	0.766 ± 0.2
LVNWFVDYRSDVSHLQTGKV	1.08 ± 0.36
LVQLKRCQMSLWMRHYHRDE	5.951 ± 0.055
LVRPFWTLRYKTYHRSPVGR	1.59 ± 0.15
LVRPSGANPSCWAIINRGEI	10.63 ± 0.079
LVSADVCLGLMPSKSLGGRV	1.07 ± 0.54
LVSRSYD	-0.341 ± 0.79
LVVIYMTRVGASTKLRVSVL	inactive
LVWLKQGGTISMLMTCHLFA	0.477 ± 0.52
LVWTD	-0.018 ± 1.1
LWAGDLFDRGP	0.709 ± 0.66
LWGHLNHQWVCVSVMWVYLS	3.64 ± 0.081
LWHFVLWYMWLLIGDVVGVC	-0.459 ± 1.1
LWILNNFGTIIFRTSHYKGV	7.4 ± 0.078
LWKLYLTVSRNLAVGISGGL	inactive
LWLMVCMMYM	2.09 ± 0.15
LWLPQFEDCSREHTCEFLAI	0.237 ± 0.56
LWSVYYMSVIIFPFGKHPKQ	7.149 ± 0.056
LWVARHIRIEFMLTFRIYKA	0.011 ± 1.1
LWVFLLAWSAQLYDWSMATR	-0.12 ± 0.79
LWVIISCSDYLNWLNRGMNE	5.45 ± 0.056

Substance	amyloid nucleation score
LWYSL	-0.558 ± 0.5
LYCILPLRL	inactive
LYDYYQICINGGRVFSDFPC	-0.474 ± 0.79
LYFDR	-0.417 ± 1.1
LYLLM	-0.358 ± 1
LYLTWCKTLSDNLAL	-1.15 ± 0.76
LYLVVYIVASGSYACVRRST	0.546 ± 0.4
LYMVSPYRAKIRSQAFRLVT	-0.388 ± 0.33
LYNRRPFPYGYGTGLCPQRI	-0.047 ± 0.79
LYNYSSFLNTVGVGYEIFMR	-0.105 ± 1.1
LYQRNRLWGRKAWNTLWFSL	-0.506 ± 0.42
LYRMYPWVLVGCELFRMVCR	0.108 ± 0.38
LYRVLNTVHVSHLQTIRP	-0.064 ± 1.1
LYTQESYSDSFVNSLRCSKV	-0.064 ± 1.1
LYVFLLCNITLTSPLFNLLF	3.92 ± 0.1
LYVQLQMEVVGPGVRLTGSL	3.19 ± 0.077
LYWFMD	-1.16 ± 1.1
LYYAQSANRRLSGAWRFLF	-0.281 ± 0.79
LYYASGRIRFCLHWHLIARV	4.894 ± 0.041
LYYFGTGAICMLLNWICPGC	inactive
MACFECFTGISACNLNMRG	8.574 ± 0.026
MASITDDRADLHH	inactive
MASSFQFSDTGSELTSREAR	-0.237 ± 0.79
MCEFLIYWIYNFSFVSSPRL	0.157 ± 1
MCRFVLSASCFMYIEHRYGR	0.734 ± 0.81

Substance	amyloid nucleation score
MCRRANGRVLGP	5.562 ± 0.042
MCTSGGISG	0.346 ± 0.5
MDFYYLGSVCHVDLLAQYLV	inactive
MDPSICSDSLRFGLYWISRR	3.93 ± 0.12
MDVES	-0.192 ± 0.45
MERDCVRVDLFRVSRGGWML	5.863 ± 0.052
MEYPRLRSHNTAIFTLFQRP	5.38 ± 0.055
MEYRGQVQGCSYPWVYRLGW	-0.078 ± 0.54
MFAGLIVLCLVWVYRRC	4.89 ± 0.061
MFCIWRE	0.907 ± 0.2
MFFSFNVFDFGPL	4.698 ± 0.036
MFIWPCYFHNIRVGQLFGFG	0.091 ± 0.63
MFLVSFRCVSYSAWYLTYMQ	-0.338 ± 0.63
MFSFCRGSANSRLAQKDIVN	0.023 ± 0.3
MGAAITSGEGYDLRLLIDNS	0.208 ± 1.1
MGRLNVYLNVRLISKVIGIQ	3.63 ± 0.053
MGTPTTEIGALTMGSEPFV	1.24 ± 0.39
MHCIFSNLV	inactive
MHCSESSYYFAILRARHVLL	1.43 ± 0.12
MHMAYSLNMSHSHIRAKAGM	1.06 ± 0.27
MHMLWETTRWASWCGYLCMG	4.93 ± 0.059
MHSFLFLVIAM	inactive
MHWFPPYDWK	0.266 ± 1
MICDLMAVVNVQSKWRYSDK	5.052 ± 0.038
MIGGDGPRDV	0.745 ± 0.38

Substance	amyloid nucleation score
MILHCGASKGIPFLFGKDFL	-0.208 ± 0.16
MISRSFPQSVFFLTDLWS	-0.667 ± 0.31
MITVFGLVTFVVIVSTESPI	3.8 ± 0.075
MIVLKRSPSLCSIS	-0.007 ± 0.34
MIWTKRLDDHELCLGSRSML	-0.739 ± 0.79
MKGAKGDNFCIMV	inactive
MKLFISNHTLWSIGKGDGVT	inactive
MKLNVWGFFDGKQRLMESAA	-1.2 ± 1.1
MKMEY	0.31 ± 0.42
MKNFNVYSTYWLCMGEYGCL	6.34 ± 0.078
MKPSGFRGILGTELRMKGWT	0.74 ± 0.57
MKVVNCGCKHIFLRHCYALR	-0.605 ± 0.45
MLAWWPFRKWRVLIRGSRGF	1.5 ± 0.35
MLCKRPWVTLFRLSKCFTSD	0.33 ± 0.56
MLCVIHE	0.675 ± 0.25
MLDMVIYCISLYCSYTLRMR	1.42 ± 0.58
MLESWFMY	-0.154 ± 0.49
MLFAVDLVYGPDPLVNELTW	1.03 ± 0.4
MLIQVCALEGRYEVTQCVGG	1.82 ± 0.12
MLLLGTTSQDHHMTLGKYAG	0.808 ± 0.74
MLLLVNSRLWLASIPIKYRA	-0.332 ± 0.44
MLNSMVGQNFVGYNHALFFH	4.16 ± 0.089
MLNYAYSL	1.42 ± 0.32
MLQPPPNESVSIILLKGSPA	5.165 ± 0.042
MLRQYCASFALVRCLNVTDR	3.12 ± 0.13

Substance	amyloid nucleation score
MLTFSTNDFVRFVMHVAQWD	2.1 ± 0.22
MLTTMCDELQLLVGPLGDRV	0.253 ± 0.3
MLYVAVTS	0.459 ± 0.25
MMARFCVAFQHVIESNLGGS	-1.4 ± 0.44
MMDFYRLDLDRTVVVRNRYL	0.389 ± 0.74
MMHELHPRIELCG	6.12 ± 0.062
MMSGCGFSLKACLKEWRGGL	7.572 ± 0.036
MMSLPTLQSW	inactive
MNIDLHTHPSRSKMLCTTAN	0.914 ± 0.55
MNKCIWGIYYR	-1.6 ± 1.1
MNMRAGTEL	0.479 ± 0.54
MNSFQTRGSVPRRNPKIRAS	0.998 ± 0.74
MPHPLLLSFEENLIDCLYDH	-0.693 ± 0.64
MPYALIR	-0.821 ± 0.35
MQMLIYGWSMCFILGAQV	0.479 ± 0.74
MQNANLIQTFEGYIYPMDIQ	0.433 ± 0.74
MRCDTVMKSSYASVASMGL	inactive
MRDRMVAAARLFRGVSRLAF	-0.268 ± 0.48
MRFPGSGGRCLMTFLRLEWV	0.329 ± 0.28
MRLEWNRGLLCDDSYARTAR	0.83 ± 0.41
MRLHSLGRCGQWSCDVGRER	0.918 ± 0.35
MRQWEQNSCYDLPAYLWNVG	-0.079 ± 0.56

Reference: the supplement of paper PMC12042874
